The text below walks through data of patent publication US20160304573A1, “FIBROMODULIN PEPTIDE” (The Regents of the University of California, priority 2010, published 2016).

The test system of experiment [1] is connective tissue growth factor (CTGF) expression. Put plainly: CTGF expression and cell aggregation in Rat-2 cells, confocal staining. The class given is cell-based. The note with it: for CTGF expression: 48 h. As to the method:
Results of exemplary tests on each of FMOD and FMOD-P, alone or in combination with TGF-β on CTGF expression are shown in FIGS. 28A-28D. In these tests, 4,000 cells/well passage 18 Rat-2 cells were seeded in 8-well chamber slices in DMEM medium with 10% FBS. After 6 h adhesion, fresh DMEM medium with 0.5% FBS was employed for overnight serum starvation and then treatment media added. Treatment media were changed after 24 h. Cells were fixed and staining at 48 h. Photos were captured at 630× magnifications using a confocal microscope. In these figures, the cells were stained for CTGF (connective tissue growth factor, a factor involved in cell proliferation, migration and matrix production) or DAPI (4′,6-diamidino-2-phenylindole a fluorescent stain that binds strongly to DNA-used for nuclear staining). Merged images showing both CTGF and DAPI staining are also shown.

The subject of a further experiment is Rat-2 cells. Kind of experiment: H&E morphology of Rat-2 cells. The class given is cell-based. The procedure:
Exemplary tests were performed to better delineate cell morphology.

In experiment [2] the test system is α-smooth muscle actin (α-SMA) expression. Kind of experiment: α-SMA expression staining. Format: cell-based. The procedure: Exemplary tests on effects of FMOD and TGF-β or FMOD peptides and TGF-β on α-SMA expression were performed and shown in FIGS. 25A-25D. Expression levels of α-SMA, which is a marker for the transition of fibroblasts to myofibroblasts, were measured and presented in staining in these figures.

The next experiment has as its target TGF-β1 (Homo sapiens, UniProt P01137). Put plainly: TGF-β1 binding to biotinylated FMOD/FMOD peptides on avidin resin; non-bound TGF-β read by Mv1Lu growth inhibition (MTT). The following applies: ratios 1:1, 10:1, 100:1, 1000:1 to TGF-β; overnight 4° C.; FIG. 13. The procedure: FMOD (whole protein) (SEQ ID NO:1), FMOD peptides and control protein BSA were biotinylated. While, the biotinylated proteins and peptides were bound to commercial available Piece Monomeric Avidin UltraLink Resin (Piece). The amounts of each test peptides/proteins are 1:1, 10:1, 100:1 and 1000:1 to TGF-βs, respectively. After washing out the non-bound residues, appropriate amount TGF-βs (based on the primary test assay) were added to the resin at 4° C. After overnight binding, non-bound TGF-βs were collected, followed by filter sterilization. Then, the TGF-βs residue were diluted 100 times in DEME-0.5% FBS to ensure the concentration was located in the linear region of TGF-βs on Mv1Lu proliferate inhibition.
Diluted TGF-βs was added to overnight serum-starved Mv1Lu, and fresh TGF-βs media were added for another 24 hour before MTT assay. Samples with no TGF-βs added were employed as controls.

The mark [3] stands for this setting: 100 pM TGF-β1 and 200 nM FMOD combined treatment.
[4] abbreviates: 100 pM TGF-β1+200 nM Fibromodulin, FIG. 25D.

Sequence of TGF-β1 (P01137 279-390 limits assumed): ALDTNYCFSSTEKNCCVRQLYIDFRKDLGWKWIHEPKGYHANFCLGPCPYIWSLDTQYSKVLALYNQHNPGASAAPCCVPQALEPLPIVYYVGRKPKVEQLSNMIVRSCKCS

B1: FMOD: recombinant human fibromodulin whole protein (SEQ ID NO:1) produced in CHO-K1 (protein, listed as Homo sapiens)
chain: MQWTSLLLLAGLFSLSQAQYEDDPHWWFHYLRSQQSTYYDPYDPYPYETYEPYPYGVDEGPAYTYGSPSPPDPRDCPQECDCPPNFPTAMYCDNRNLKYLPFVPSRMKYVYFQNNQITSIQEGVFDNATGLLWIALHGNQITSDKVGRKVFSKLRHLERLYLDHNNLTRMPGPLPRSLRELHLDHNQISRVPNNALEGLENLTALYLQHNEIQEVGSSMRGLRSLILLDLSYNHLRKVPDGLPSALEQLYMEHNNVYTVPDSYFRGAPKLLYVRLSHNSLTNNGLASNTFNSSSLLELDLSYNQLQKIPPVNTNLENLYLQGNRINEFSISSFCTVVDVVNFSKLQVLRLDGNEIKRSAMPADAPLCLRLASLIEI
For the molecule B1, the cell aggregation result in experiment [1] (100 pM TGF-β1+200 nM FMOD) is recorded as “significant cell aggregation”. Further, the CTGF expression result in experiment [1] (100 pM TGF-β1+200 nM FMOD, FIG. 21D) is “significantly higher CTGF expression”; in experiment [1] (mono-treatment (200 nM FMOD or 100 pM TGF-β1), FIGS. 21B, 21C), “Minimal CTGF expression”. Also, the cell morphology entry in experiment [1] (200 nM FMOD alone, compared to the control group) is “more flat and spread out when compared to the control group”; in experiment [1] (TGF-β1/FMOD combo-treatment, FIG. 24), “much more densely packed, aggregated cells with a significant degree of nodule formation”. Further, the “CTGF expression (green fluorescence)” value in experiment [1] (TGF-β1/FMOD combo-treatment relative to TGF-β1 mono-treatment, FIG. 24) is reported as “significantly increases expression of CTGF”. For the same molecule, in the experiment with Rat-2 cells (setting [3]), the “cell density (H&E)” value is “significantly increased cell density”. Moreover, the nodule size entry in the experiment on Rat-2 cells (setting [3]) was “increased nodule size”. In the experiment on Rat-2 cells (100 pM TGF-β1 and 200 nM FMOD combined treatment, 8-well chamber slides), the nodule number result is “about four”. In addition, the “cell morphology (H&E)” value in the experiment on Rat-2 cells (200 nM FMOD alone, FIG. 22) is “flat, spread-out Rat-2 cell morphology”. Also, the “cell aggregation/density (H&E)” value in the experiment on Rat-2 cells (mono-treatment (200 nM FMOD or 100 pM TGF-β1), relative to controls) is “lower cell aggregation/density relative to controls”. Also, the cell density/cell aggregation entry in experiment [2] (setting [4]) is listed as “increased cell density/cell aggregation”. Moreover, the α-SMA staining result is “significantly increased α-SMA staining” in experiment [2] (setting [4]) and “minimal α-SMA staining” in experiment [2] (mono-treatment (200 nM FMOD or 100 pM TGF-β1), FIGS. 25B, 25C). Also, the TGF-β1 binding entry with TGF-β1 was “TGF-β1 binding that also increased with higher FMOD protein ratios”.
